These results are taken from article PMC8109025 (Bioconjugate chemistry, 2020).

Data set [1] concerns the target 1N:1E nanobody-enzyme megamolecule (one cutinase-5F7 nanobody fusion covalently linked to one SnapTag-yCD fusion) (yeast). Description: enzyme activity against protein concentration.
For data set [2] the target is unchanged. Description: negative-stain transmission electron microscopy.
Data set [3] shares this target. Description: SEC.
Data set [4] has as its target 2N:1E nanobody-enzyme megamolecule (two cutinase-5F7 nanobody fusions covalently linked to one SnapTag-yCD fusion) (yeast). Description: negative-stain transmission electron microscopy.
For data set [5] the target is unchanged. Kind of data set: SEC.
Data set [6] concerns the molecule itself. Kind of data set: enzyme activity against protein concentration.
Data set [7] concerns the molecule itself. Kind of data set: SEC.

Regarding “1N:1E nanobody-enzyme megamolecule (one cutinase-5F7 nanobody fusion covalently linked to one SnapTag-yCD fusion)”, the Kd in data set [1] turned out to be 38 µM. Further, the stoichiometry N in data set [2] and in data set [3] was 2 each time.
With “2N:1E nanobody-enzyme megamolecule (two cutinase-5F7 nanobody fusions covalently linked to one SnapTag-yCD fusion)”, the stoichiometry N in data set [4] and in data set [5] was 2 throughout.

B1: SnapTag-yeast cytosine deaminase fusion protein (enzyme, UniProt Q12178 1-158, looked up)
chain: MVTGGMASKWDQKGMDIAYEEAALGYKEGGVPIGGCLINNKDGSVLGRGHNMRFQKGSATLHGEISTLENCGRLEGKVYKDTTLYTTLSPCDMCTGAIIMYGIPRCVVGENVNFKSKGEKYLQTRGHEVVVVDDERCKKIMKQFIDERPQDWFEDIGE
As to B1, binding in data set [6] was put at a Kd of 12 µM. In addition, in data set [7], the “stoichiometry N” value worked out at 2.
